# Assay results: patent publication US20240262917A1, “ANTIBODIES AGAINST ALK AND METHODS OF USE THEREOF” (Dana-Farber Cancer Institute, Inc., priority 2021, published 2024)
# B1: 5H3: murine monoclonal IgG1 anti-ALK antibody; VH SEQ ID NO: 13, VL SEQ ID NO: 14 (antibody)
# heavy: MEWSWVFLFLLSVIAGVQSQVQLQQSGAELVRPGASVTLSCKASGYTFTDYEMHWVKQTPVHGLEWIGAIDPETGGSAYNQKFKAKAILTADRSSSTAYMELRSLTSEDSAVYYCTRTRYYGSSPAMDYWGQGTSVTVSSAKTTPPSVYPLAPGSAAQTNSMVTLGCLVKGYFPEPVTVTWNSGSLSSGVHTFPAVLQSDLYTLSSSVTVPSS
# light: MSSAQFLGLLLLCFQGTRCDIQMTQTTSSLSASLGDRVTISCSASQGIGNYLNWYQQKPDGTVKLLIYYTSSLHSGVPSRFSGSGSGTDYSLTISNLEPEDIATYYCQQYSKLPYTFGGGTKLEIKRADAAPTVSIFPPSSEQLTSGGASVVCFLNNFYPKDINVKWKIDGSERQNGVLNSWTDQDSKDSTYSMSSTLTLTK
# B2: andecaliximab: selective MMP-9 antibody (Gilead) (antibody, chains of the INN, looked up, V domains shown)
# VH: QVQLQESGPGLVKPSETLSLTCTVSGFSLLSYGVHWVRQPPGKGLEWLGVIWTGGTTNYNSALMSRFTISKDDSKNTVYLKMNSLKTEDTAIYYCARYYYGMDYWGQGTLVTVSS
# VL: DIQMTQSPSSLSASVGDRVTITCKASQDVRNTVAWYQQKPGKAPKLLIYSSSYRNTGVPDRFSGSGSGTDFTLTISSLQAEDVAVYYCQQHYITPYTFGGGTKVEIK
# Assays:
# [1] = test system: ALK; assay: Western blot analysis of ALK in cell lysates and conditioned media; format: binding, human
# Source text: (§1) (A) Western blot analysis of ALK in Kelly and SHEP neuroblastoma cells overexpressing GFP and mutated ALK using the mAb-7 and 8G7 anti-ALK antibodies. The mAb-7 antibody was developed at the Vigny laboratory (INSERM, Unité 706/Université Pierre et Marie Curie, Paris F-75005, France) (Moog-Lutz et al, 2005; PMID: 15886198) and obtained through a Materials Transfer Agreement. (B) Western blot analysis of ALK expression in various non-neuroblastoma cell lines: H1373 (human […]), HeLa (cervical cancer), NIH-3T3 (transformed mouse fibroblast cells) using 8G7 and C26G7 (rabbit monoclonal C-terminal anti-ALK antibody; Cell Signaling Technology; Cat #3333; RRID:AB_836862) anti-ALK antibodies.
# (§2) The three HPLC-purified monoclonal antibodies (5H3, 7F7 and 8G7) all of the IgG1 subtype, were tested for their ability to bind to ALK in neuroblastoma cells expressing ALK. Both cell lysates and supernatants from cells grown with and without serum (to increase the expression of ALK) were tested by western blotting. […] (A) Western blot analysis of the indicated hybridoma clones in neuroblastoma cell lines expressing WT (NGP) and mutated (SHSY5Y, Kelly) ALK. NIH3T3 cells were used as controls. (B) Western blot analysis of conditioned media from NGP neuroblastoma and 293T cells engineered to express the WT ALK receptor, with the three ALK mAbs showing binding with the shed ALK extracellular domain. […]
# Cell lysates were prepared in NP-40 buffer (Invitrogen) containing complete protease inhibitor (Roche), phosphatase inhibitor (Roche) and phenylmethylsulfonyl fluoride (PMSF). Lysates were incubated on ice for 20 min and centrifuged at 16,000 g for 15 min at 4° C. Protein concentrations of the supernatants were determined with the DC protein assay kit (Bio-Rad). Protein samples were denatured using NuPAGE LDS sample buffer (Invitrogen) and NuPAGE sample reducing agent (Invitrogen). Proteins were then separated on precast 4-12% Bis-Tris gels (Invitrogen) and transferred to nitrocellulose membranes (Bio-Rad). […]
# [2] = biological target: T1, full-length ALK receptor (Homo sapiens, UniProt Q9UM73); assay: Immunoprecipitation of ALK from neuroblastoma cell lysates; format: binding; conditions: immunoblotting with commercial anti-ALK C-terminal antibody
# T1 construct: endogenous in cells
# Source text: Cell lysates from the indicated neuroblastoma cell lines were subjected to immunoprecipitation (IP) using 8G7 and subsequently to immunoblotting analysis using the commercial anti-ALK C-terminal antibody.
# [3] = biological target: T2, ALK extracellular fragment (Homo sapiens, UniProt Q9UM73); assay: Sandwich ELISA of shed ALK ECD in patient sera; format: binding; conditions: sera of patients with ALK-expressing neuroblastoma
# T2 construct: conditioned media containing the shed ALK (ALK 1-654) ECD fragment; from tissue; host or cells: serum of neuroblastoma patients
# Source text: Detection of the purified ALK-ECD protein using 8G7 (detection) and 7F7 (capture) anti-ALK antibodies by sandwich ELISA. (A) Standard curve showing the gradual increase in signal with increasing concentrations of the ALK-ECD protein in the media of NGP cells that express cleaved ALK. Quantification is shown below. (B) ELISA of the shed ALK ECD protein in sera from patients with neuroblastoma. Ample diluent buffer was used to dilute the serum samples, Media represents Dulbecco's Modified Eagle media in which human embryonic kidney 293T cells were grown, 293T media, conditioned media from 293T cells; ALK ECD 293T media, media collected from 293T cells in which the ALK-ECD-mFc protein was overexpressed.
# We developed a sandwich ELISA technique where two ALK antibodies (for example, 5H3 or 7F7) can be used to capture the ALK extracellular fragment (antigen), and another antibody, such as the 8G7 antibody, can be used to detect the captured ALK extracellular fragment-5H3 or 7F7 complex. The different epitope binding sites of these antibodies on the ALK extracellular fragment protein allow for the development of the sandwich ELISA technique for the detection of the cleaved or shed ALK extracellular fragment in patient serum samples (FIG. 18). […]
# [4] = biological target: T3, ALK (Homo sapiens, UniProt Q9UM73); assay: Western blot analysis of ALK in cell lysates and conditioned media; format: binding; design: endogenous in cells; host or cells: human neuroblastoma lines (NGP, SH-SY5Y, Kelly and others)
# Source text: as §1, §2
# Cell lysates were prepared in NP-40 buffer (Invitrogen) containing complete protease inhibitor (Roche), phosphatase inhibitor (Roche) and phenylmethylsulfonyl fluoride (PMSF). Lysates were incubated on ice for 20 min and centrifuged at 16,000 g for 15 min at 4° C. Protein concentrations of the supernatants were determined with the DC protein assay kit (Bio-Rad). Protein samples were denatured using NuPAGE LDS sample buffer (Invitrogen) and NuPAGE sample reducing agent (Invitrogen). Proteins were then separated on precast 4-12% Bis-Tris gels (Invitrogen) and transferred to nitrocellulose membranes (Bio-Rad). After blocking in blocking buffer (5% dry milk in TBS with 0.2% Tween-20), membranes were incubated with the primary antibody overnight at 4 °C, washed three times with TBST buffer, chemiluminescent detection performed with the appropriate secondary antibodies and developed using Genemate Blue ultra-autoradiography film (VWR).
# [5] = biological target: T3, ALK; assay: Screening and subcloning of hybridomas (ELISA, FCM, functional assays); format: binding; design: The human ALK extracellular domain (19-682 aa) fused to the mouse Fc gene; made in house; host or cells: 293T cells; conditions: after subcloning by limiting dilution
# Protocol: HAT-selected fused cells were distributed in 96 well plates and the hybridoma supernatants were subjected to several rounds of screening. Initial screening was performed using ELISA against human Fc to test antigen binding with the ALK ECD-human Fc fusion protein. […] These were rescreened by FACS against Ba/F3 and neuroblastoma (NB) cells expressing ALK. From this screen, 22 positive hybridoma supernatants were tested in an antigen-binding capture ELISA assay and 11 were subsequently selected for further analysis. (A) Binding of hybridoma supernatants using an antigen-binding capture assay. The plate was coated with goat-anti-mouse IgG Fc, incubated with hybridoma supernatants, followed by ALK-HRP and visualized using an HRP substrate. (B) Binding of selected hybridoma supernatants to a human Fc antibody using ELISA screening. Plates were coated with the ALK ECD-human Fc fusion protein (ALK-hFc) together with an irrelevant hFc protein and visualized using an anti-mouse kappa light chain antibody. Only the supernatants with the highest binding are shown.
# Supernatants from individual clones were then screened by ELISA and FACS analysis for ALK binding. Shown here is the viability of NGP neuroblastoma cells (expressing ALK) in the presence of anti-mouse IgG antibody in hybridoma clone supernatants. […]
# Target sequence in this assay (Q9UM73 19-682): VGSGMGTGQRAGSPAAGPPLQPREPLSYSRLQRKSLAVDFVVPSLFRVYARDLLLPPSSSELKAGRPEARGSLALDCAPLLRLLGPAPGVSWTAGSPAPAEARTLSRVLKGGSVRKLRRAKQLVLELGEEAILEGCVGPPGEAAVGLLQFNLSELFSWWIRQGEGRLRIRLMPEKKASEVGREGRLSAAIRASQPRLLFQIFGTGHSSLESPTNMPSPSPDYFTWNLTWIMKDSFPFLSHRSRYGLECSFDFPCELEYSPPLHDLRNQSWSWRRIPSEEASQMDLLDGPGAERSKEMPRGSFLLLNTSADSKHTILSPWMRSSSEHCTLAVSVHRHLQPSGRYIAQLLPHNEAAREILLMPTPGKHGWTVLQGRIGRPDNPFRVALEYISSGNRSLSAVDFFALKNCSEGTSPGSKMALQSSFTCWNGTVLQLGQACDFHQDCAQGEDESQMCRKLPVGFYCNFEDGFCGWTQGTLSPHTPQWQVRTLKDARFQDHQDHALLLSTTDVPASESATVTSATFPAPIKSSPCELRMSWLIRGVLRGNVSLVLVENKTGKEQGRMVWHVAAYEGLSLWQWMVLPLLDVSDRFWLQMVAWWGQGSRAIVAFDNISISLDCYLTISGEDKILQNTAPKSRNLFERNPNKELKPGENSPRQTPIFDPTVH
# [6] = biological target: MMP-9 (Homo sapiens, UniProt P14780); conditions: cited from earlier work
# Sequence of MMP-9 (P14780 94-707): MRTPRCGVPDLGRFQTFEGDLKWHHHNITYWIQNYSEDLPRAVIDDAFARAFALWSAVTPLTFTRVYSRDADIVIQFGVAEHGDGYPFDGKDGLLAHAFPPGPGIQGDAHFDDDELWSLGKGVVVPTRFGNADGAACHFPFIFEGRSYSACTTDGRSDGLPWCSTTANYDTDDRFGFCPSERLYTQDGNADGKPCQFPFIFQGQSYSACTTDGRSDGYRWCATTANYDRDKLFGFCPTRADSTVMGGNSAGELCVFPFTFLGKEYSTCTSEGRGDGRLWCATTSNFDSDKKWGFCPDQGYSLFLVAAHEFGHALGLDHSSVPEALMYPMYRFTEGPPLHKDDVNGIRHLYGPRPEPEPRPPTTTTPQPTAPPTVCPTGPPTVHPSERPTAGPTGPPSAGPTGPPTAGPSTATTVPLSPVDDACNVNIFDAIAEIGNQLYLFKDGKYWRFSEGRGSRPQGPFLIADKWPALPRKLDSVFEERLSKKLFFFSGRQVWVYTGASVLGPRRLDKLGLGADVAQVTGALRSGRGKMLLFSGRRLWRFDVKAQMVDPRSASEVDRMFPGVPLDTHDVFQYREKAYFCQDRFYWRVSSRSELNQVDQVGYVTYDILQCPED
# T1 sequence (Q9UM73 19-1620): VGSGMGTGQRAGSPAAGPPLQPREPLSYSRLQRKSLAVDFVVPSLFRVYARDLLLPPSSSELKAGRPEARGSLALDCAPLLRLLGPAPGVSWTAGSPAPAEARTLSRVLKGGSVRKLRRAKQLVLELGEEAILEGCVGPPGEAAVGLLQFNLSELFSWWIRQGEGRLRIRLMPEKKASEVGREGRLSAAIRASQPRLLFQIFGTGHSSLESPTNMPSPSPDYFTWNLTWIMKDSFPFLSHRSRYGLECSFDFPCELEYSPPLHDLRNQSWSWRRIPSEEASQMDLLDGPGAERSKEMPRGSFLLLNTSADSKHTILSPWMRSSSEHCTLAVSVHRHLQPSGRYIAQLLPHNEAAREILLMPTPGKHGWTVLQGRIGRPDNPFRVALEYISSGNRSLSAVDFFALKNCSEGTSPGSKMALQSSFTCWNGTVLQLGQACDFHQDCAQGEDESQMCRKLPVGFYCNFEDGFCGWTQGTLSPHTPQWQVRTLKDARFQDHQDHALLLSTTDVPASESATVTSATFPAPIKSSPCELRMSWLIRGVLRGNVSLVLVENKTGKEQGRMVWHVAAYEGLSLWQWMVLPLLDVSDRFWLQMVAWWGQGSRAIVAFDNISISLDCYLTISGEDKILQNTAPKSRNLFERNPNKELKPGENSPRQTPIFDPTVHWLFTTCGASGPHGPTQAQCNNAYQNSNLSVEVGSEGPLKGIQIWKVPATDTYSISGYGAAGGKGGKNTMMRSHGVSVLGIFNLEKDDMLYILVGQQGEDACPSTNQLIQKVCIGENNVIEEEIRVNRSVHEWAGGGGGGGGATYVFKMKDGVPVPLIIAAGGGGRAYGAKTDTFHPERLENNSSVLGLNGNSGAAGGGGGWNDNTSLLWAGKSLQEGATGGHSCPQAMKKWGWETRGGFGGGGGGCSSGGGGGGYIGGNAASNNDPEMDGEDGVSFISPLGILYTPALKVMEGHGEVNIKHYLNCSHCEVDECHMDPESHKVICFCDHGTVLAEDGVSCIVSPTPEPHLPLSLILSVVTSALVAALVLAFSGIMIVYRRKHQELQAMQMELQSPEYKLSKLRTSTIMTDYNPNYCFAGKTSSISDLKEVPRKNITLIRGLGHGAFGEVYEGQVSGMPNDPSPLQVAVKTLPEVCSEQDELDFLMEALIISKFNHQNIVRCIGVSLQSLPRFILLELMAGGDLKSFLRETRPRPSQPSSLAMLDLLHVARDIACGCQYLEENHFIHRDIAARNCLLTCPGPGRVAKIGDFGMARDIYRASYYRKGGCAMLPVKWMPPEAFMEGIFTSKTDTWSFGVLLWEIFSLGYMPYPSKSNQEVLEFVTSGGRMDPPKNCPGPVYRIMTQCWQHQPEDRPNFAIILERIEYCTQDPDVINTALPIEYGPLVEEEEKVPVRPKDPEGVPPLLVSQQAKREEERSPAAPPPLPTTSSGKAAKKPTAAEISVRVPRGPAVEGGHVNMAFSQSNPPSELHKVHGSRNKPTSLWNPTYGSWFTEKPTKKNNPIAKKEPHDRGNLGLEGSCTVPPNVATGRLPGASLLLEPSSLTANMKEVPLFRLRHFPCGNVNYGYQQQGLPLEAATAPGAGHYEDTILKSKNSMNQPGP
# T2 sequence (Q9UM73 19-654): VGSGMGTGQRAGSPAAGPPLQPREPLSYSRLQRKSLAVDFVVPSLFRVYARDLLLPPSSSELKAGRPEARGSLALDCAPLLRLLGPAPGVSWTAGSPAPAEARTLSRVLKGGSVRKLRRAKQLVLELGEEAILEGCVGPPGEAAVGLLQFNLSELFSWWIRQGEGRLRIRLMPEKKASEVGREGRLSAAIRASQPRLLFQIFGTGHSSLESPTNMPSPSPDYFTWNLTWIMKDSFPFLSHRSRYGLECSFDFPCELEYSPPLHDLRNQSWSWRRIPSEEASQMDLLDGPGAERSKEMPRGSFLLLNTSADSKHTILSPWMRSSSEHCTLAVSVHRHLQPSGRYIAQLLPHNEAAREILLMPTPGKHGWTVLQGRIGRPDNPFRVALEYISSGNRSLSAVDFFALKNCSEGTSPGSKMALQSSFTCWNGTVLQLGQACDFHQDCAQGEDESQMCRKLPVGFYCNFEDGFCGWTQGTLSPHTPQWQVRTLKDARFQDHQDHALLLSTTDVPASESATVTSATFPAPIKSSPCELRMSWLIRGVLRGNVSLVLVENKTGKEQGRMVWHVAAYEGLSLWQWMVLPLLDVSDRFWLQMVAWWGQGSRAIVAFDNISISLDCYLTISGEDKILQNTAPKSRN
Molecule,recognition of ALK in immunoblotting assays [1],immunoprecipitation of ALK [2],recognition of circulating ALK extracellular fragment in sera [3],ALK protein recognized by western blotting in cell lysates ([4]; cell lysates of neuroblastoma cells expressing ALK),"ALK protein recognized by western blotting in media ([4]; conditioned media of NB cells, shed ECD domain)",ALK specificity of the clone's monoclonal antibody [5],"clinical activity ([6]; combined with standard chemotherapy, gastric and gastroesophageal junction adenocarcinoma)",target engagement and dose-limiting toxicity ([6]; patients with gastric and gastroesophageal junction adenocarcinoma)
B1,recognize ALK in immunoblotting assays,can immunoprecipitate ALK,recognize the circulating ALK extracellular fragment in the sera of patients with ALK-expressing neuroblastoma,recognized a 220 kDa protein in the cell lysates of neuroblastoma cells,an approximately 100 kDa protein in the media,high ALK specificity,–,–
B2,–,–,–,–,–,–,showed activity when combined with standard chemotherapy,achieved target engagement without dose-limiting toxicity
